# Patent US20240425618A1 (YOUCARE PHARMACEUTICAL GROUP, published 2024)
# Target: polypeptide N52 simulating a target sequence (SARS-CoV-2, N-terminal acetyl (Ac); C-terminal amide (NH2))
protein,measurement,value
SVVNIQKEIDRLNEVAKNLNESLIDLQELGKYEQYIKK (N-terminal acetyl (Ac); flexible linker PEG4 (from Fmoc-NH-PEG4-CH2CH2COOH) between the antiviral polypeptide sequence and the C-terminal K; cholesteryl hemisuccinate on the C-terminal K; C-terminal amide (NH2)) [lipopeptide IPB24],Tm of the complex,90 °C
